From patent US20190169301A1 (Boehringer Ingelheim, published 2019)

How the values were obtained:
[1] = biological target: T1, human CD40 on cells (CD40-transfected HEK293 cells, Ramos cells, human B cells, human platelets) (human, UniProt P25942 21-277); assay: cell binding, flow cytometry (cell type not given)
T1 construct: whole, on cells; also called cellular CD40

[2] = biological target: T1, human CD40 on cells (CD40-transfected …); assay: flow cytometry, human CD40-transfected HEK293 cells
Description: (§1) The specific binding of humanized antibodies to cellular CD40 was analyzed by flow cytometry using human CD40-transfected HEK293 cells. Concentration-dependent binding of Antibody A, Antibody B, and Antibody C was observed. […] No binding was detected on CD40 negative cells such as non-transfected HEK293 cells or the T cell line HSB-2 thus confirming selective binding to CD40 (data not shown).

[3] = biological target: T2, human CD40-Fc protein (human, UniProt P25942 21-193); assay: ForteBio Octet, human CD40-Fc, +/- human serum
T2 construct: also called recombinant CD40 protein; not shown: Fc part
Description: Due to antibody and CD40-Fc bivalency avidity effects prevent Kds below 100 pM from being determined accurately. In addition, the binding to CD40-Fc was analyzed in the absence and presence of 50% human serum and no significant effect of serum on binding was observed (data not shown)

[4] = biological target: T1, human CD40 on cells (CD40-transfected …); assay: cell-based or functional assay
[5] = biological target: T1, human CD40 on cells (CD40-transfected …); assay: cell-based or functional assay; remark: listed apart in the source
[6] = biological target: T3, cynomolgus monkey CD40 on cells (B cells, platelets) (cynomolgus monkey, UniProt G7PG38 21-278); assay: EC50 ratio human/cyno; ratio > 1 means increased binding to Cyno compared to Human
T3 construct: whole, on cells

[7] = biological target: T1, human CD40 on cells (CD40-transfected …); assay: flow cytometry (MFI) on CD40-transfected HEK cells
Description: as §1

[8] = biological target: T3, cynomolgus monkey CD40 on cells (B …); assay: flow cytometry, directly labeled antibody, B cells in cynomolgus whole blood (n = 5); range in brackets
[9] = biological target: T1, human CD40 on cells (CD40-transfected …); assay: flow cytometry, directly labeled antibody, B cells in human whole blood (n = 6); range in brackets
[10] = biological target: T3, cynomolgus monkey CD40 on cells (B …); assay: flow cytometry, directly labeled antibody, platelets in cynomolgus whole blood (n = 5); range in brackets
[11] = biological target: T1, human CD40 on cells (CD40-transfected …); assay: flow cytometry, directly labeled antibody, platelets in human whole blood (n = 5); range in brackets
[12] = biological target: T1, human CD40 on cells (CD40-transfected …); assay: flow cytometry (MFI) on human CD40-transfected HEK-293 cells
Description: as §1

[13] = biological target: T1, human CD40 on cells (CD40-transfected …); assay: flow cytometry (mean fluorescence intensity), FITC-labeled antibody on human platelets

T1 sequence (P25942 21-277): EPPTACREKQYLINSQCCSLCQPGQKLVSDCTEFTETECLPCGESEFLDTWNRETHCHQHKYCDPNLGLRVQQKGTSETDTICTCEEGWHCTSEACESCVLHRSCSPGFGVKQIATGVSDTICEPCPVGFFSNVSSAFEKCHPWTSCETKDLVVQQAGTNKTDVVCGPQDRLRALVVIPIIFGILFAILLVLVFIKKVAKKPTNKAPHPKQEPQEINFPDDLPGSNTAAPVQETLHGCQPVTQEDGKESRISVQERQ
T2 sequence (P25942 21-193 limits assumed): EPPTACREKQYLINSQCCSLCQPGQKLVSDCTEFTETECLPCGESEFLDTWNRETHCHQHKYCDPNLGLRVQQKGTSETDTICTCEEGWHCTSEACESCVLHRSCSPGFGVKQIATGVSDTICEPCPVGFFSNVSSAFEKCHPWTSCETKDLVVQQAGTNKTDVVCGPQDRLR

Row | EC50 [1] [nM] | EC50 [2] [nM] | Kd [3] [nM] | B cell proliferation assay, average IC50 [4] [nM] | B cell proliferation:Agonism (SI*) [5] | Species cross-react.:Hu/Cyno Binding (EC50 ratios) [6] [ratio] | EC50 (read off the curve) [7] [nM] | EC50 [8] [nM] | EC50 [9] [nM] | EC50 [10] [nM] | EC50 [11] [nM] | EC50 [12] [nM] | binding result [13] | Binder
1 | 0.9 | ~1 | < 0.1 | ~0.02 | < 2 SI (Stimulation Index) | – | – | – | – | – | – | – | – | 4D11 (Kirin/Astellas) anti-CD40 antibody (antibody, V domains shown) VH: QLQLQESGPGLLKPSETLSLTCTVSGGSISSPGYYGGWIRQPPGKGLEWIGSIYKSGSTYHNPSLKSRVTISVDTSKNQFSLKLSSVTAADTAVYYCTRPVVRYFGWFDPWGQGTLVTVSS VL: AIQLTQSPSSLSASVGDRVTITCRASQGISSALAWYQQKPGKAPKLLIYDASNLESGVPSRFSGSGSGTDFTLTISSLQPEDFATYYCQQFNSYPTFGQGTKVEIK
2 | 1.2 | ~1 | < 0.1 | – | < 2 SI (Stimulation Index) | 3 | ~1 | – | – | – | – | – | – | Antibody A (IgG1KO) (antibody, V domains shown, also called 20E2-12) VH: EVQLVESGGGLVKPGGSLRLSCAASGFTFSDYGMHWVRQAPGKGLEWVAYISSGNRIIYYADTVKGRFTISRDNAKNSLYLQMNSLRAEDTALYYCARQDGYRYAMDYWAQGTLVTVSS VL: DIVMTQSPDSLAVSLGERATMSCKSSQSLLNSGNQKNYLTWHQQKPGQPPKLLIYWTSTRESGVPDRFSGSGSGTDFTLTISSLQAEDVAVYYCQNDYTYPLTFGGGTKVEIKR
3 | 1.5 | ~1 | < 0.1 | – | < 2 SI (Stimulation Index) | 2 | ~2 | 2.1 | 1.8 | 3.9 | 4.6 | 1 | – | Antibody B (IgG1KO) (antibody, V domains shown) VH: EVQLVESGGGLVKPGGSLRLSCAASGFTFSDYGMHWVRQAPGKGLEWVAYISSGNRIIYYADTVKGRFTISRDNAKNSLYLQMNSLRAEDTAVYYCARQDGYRYAMDYWGQGTLVTVSS VL: DIVMTQSPDSLAVSLGEKVTINCKSSQSLLNSGNQKNYLTWHQQKPGQPPKLLIYWTSTRESGVPDRFSGSGSGTDFTLTISSLQAEDVAVYYCQNDYTYPLTFGGGTKVEIKR
4 | 1.7 | ~1 | < 0.1 | – | < 2 SI (Stimulation Index) | 1 | ~0.8 | – | – | – | – | – | – | Antibody C (IgG1KO) (antibody, V domains shown, also called 2H11-159-94) VH: QVQLVQSGAEVKKPGASVKVSCTASGFNIKDYYVHWVKQAPGQGLEWMGRIDPEDGDSKYAPKFQGKATMTADTSTSTVYMELSSLRSEDTAVYYCTTSYYVGTYGYWGQGTLVTVSS VL: DIQMTQSPSSLSASVGDRVTITCSASSSVSYMLWFQQKPGKAPKLLIYSTSNLASGVPSRFSGSGSGTDFTLTISSLQPEDFATYYCQQRTFYPYTFGGGTKVEIKR
5 | – | – | – | – | – | – | – | – | – | – | – | – | binds | 2H11 (murine anti-human CD40 antibody) (antibody, V domains shown, Mouse monoclonal antibody) VH: EVQLQQSGAELVRPGASVKLSCTASGFNIKDYYVHWVKQRPEKGLEWIGRIDPEDGDSKYAPKFQGKATMTADTSSNTAYLHLSSLTSEDTAVYYCTTSYYVGTYGYWGQGTTLTVSS VL: QIVLTQSPAIMSASPGEKVTITCSASSSVSYMLWFQQKPGTSPKLWIYSTSNLASGVPARFGGSGSGTSYSLTISRMEAEDAATYYCQQRTFYPYTFGGGTKLEIK
